Patent US20210238281A1 (INSTITUT NATIONAL DE LA SANTE ET DE LA RECHERCHE MEDICALE …, published 2021)

T1: recombinant human MOG protein (human, UniProt Q16653 30-154, limits assumed)
T1 construct: Bought recombinant protein; also called HMOG
T1 sequence (looked up): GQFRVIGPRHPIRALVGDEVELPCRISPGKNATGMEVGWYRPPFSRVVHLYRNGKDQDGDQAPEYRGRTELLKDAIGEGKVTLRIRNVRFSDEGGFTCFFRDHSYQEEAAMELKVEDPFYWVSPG

T2: recombinant murine MOG protein (murine, UniProt Q61885 29-156, limits assumed)
T2 construct: Bought recombinant protein; also called MMOG
T2 sequence (looked up): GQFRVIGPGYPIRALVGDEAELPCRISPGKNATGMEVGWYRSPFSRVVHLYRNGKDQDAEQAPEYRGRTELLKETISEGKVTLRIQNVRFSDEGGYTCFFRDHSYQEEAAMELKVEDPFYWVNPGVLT


What was measured:
[1] = biological target: T1, recombinant human MOG protein; experiment: phage-scFv ELISA on coated recombinant human MOG (0.5 µg/well), anti-M13 HRP, OD450 over BSA background
Method: (§1) The binding characteristics of the scFvs expressed on the surface of the phages isolated during the screening were determined using an ELISA assay using the recombinant MOG protein (R&D system). Along with the selected clones, phage-scFv-8-18C5 is expressed to serve as a positive control for ELISA. Briefly, phage-scFv were produced in the form of clones isolated on a 96-well plate in 800 μl of 2YT/ampicillin/glucose cultures infected with the helper phage M13K07 (as described previously). The phages produced overnight at 26° C. were then recovered in the supernatants after 30 minutes of centrifugation at 3000 g. These supernatants were directly diluted 1/2 in PBS/4% BSA/0.1% Tween 20 and tested on Maxisorp immunoplates previously coated with 0.5 μg of human or murine MOG or PBS (background control (bdf) in BSA)/well and blocked with 4% BSA in PBS. After incubation for 2 hours at 37° C., the wells were washed 3 times with PBS/0.1% Tween-20 and bound phages-scfv were detected with anti-M13 HRP antibody (GE Healthcare). The plate is read at 450 nm (OD) on a plate reader (TECAN). The results are expressed as a ratio: OD on target/OD bdf (OD on an uncoated plate saturated with BSA) and the ratios are compared with that obtained for the positive control.

[2] = biological target: T2, recombinant murine MOG protein; experiment: phage-scFv ELISA on coated recombinant murine MOG (0.5 µg/well), anti-M13 HRP, OD450 over BSA background
Method: as §1

| ratio OD on target/OD bdf [1] | ratio OD on target/OD bdf [2] | Binder |
| --- | --- | --- |
| 16.4 ratio | 7.53 ratio | anti-MOG MO3J-05 antibody (scFv, V domains shown) VH: EVQLVQSGAEVKKPGASVKVSCKASGYTFTSYGISWVRQAPGQGLEWMGWISAYNGNTNYAQKLQGRVTMTTDTSTSTAYMELRSLRSDDTAVYYCARNMGCSSTSCFVSWFDPWGQGTLVTVSS VL: not shown |
| 14.6 ratio | 4.76 ratio | anti-MOG MO3J-51 antibody (scFv, V domains shown) VH: EVQLVQSGAEVKKPGASVKVSCKASGYTFTSYGISWVRQAPGQGLEWMGWISAYNGNTNYAQKLQGRVTMTTDTSTSTAYMELRSLGSDDTAVYYCARNMGCSSTSCFVSWFDPWGQGTLVTVSS VL: QSVLTQPPSVSAAPGRKVTISCSGSSSNIGNNYVAWYQQLPGTAPKLLIYENNKRPSGIPGRFSGSKSATSATLGITGLQTGDEADYYCGTWDNSLSAWVFGGGTKLTVL |
| 11.7 ratio | 5.66 ratio | anti-MOG MO3J-19 antibody (scFv, V domains shown) VH: EVQLVQSGAEVKKPGASVKVSCKASGYTFTSYGISWVRQAPGQGLEWMGWISAYNGNTNYAQKLQGRVTMTTDTSTSTAYMELRSLRSDDTAVYYCARNMGCSSTSCFVSWFDPWGQGTLVTVSS VL: QSVLTQPPSASGTPGQRVTISCSGSTSNIGSQIVNWYQQLPGTAPRLIIYNDNERPSGVSDRFSGSKSDTSASLAISGLQSEDEADYYCAAWDDSLNGYVFGTGTKVTVL |
| 21 ratio | 6.48 ratio | anti-MOG MO3J-40 antibody (scFv, V domains shown) VH: EVQLVESGAEVKKPGESLKISCKGSGYTFTSNWIGWVRQMPGKGLEWMGIIYPGDSDTRYSPSFQGQGTISADKSISTAYLQWSSLRASDTAMYYCARASIAVRPHIDYWGQGTLVTVSS VL: not shown |
| 20.8 ratio | 8.26 ratio | anti-MOG MO3J-43 antibody (scFv, V domains shown) VH: EVQLVESGGGLVKPGGSLRLSCAASGFTFSDYYMSWIRQAPGKGLEWVSYISSSGNTIYYADSVKGRFTISRDNAKNSLYLQMNSLRAEDTAVYYCAKDSPVPTVWGQGTLVTVSS VL: QSVVTQPPSVSGAPGQRVSISCTGGSSNIGADYDVHWYQQLPGTAPKLLIYGNNNRPSGVPDRFSGSKSGTSASLAISGLQPEDEAVYYCQSYDSGLRSSVFGGGTKLTVL |
| 16.3 ratio | 6.86 ratio | anti-MOG MO3J-52 antibody (scFv, V domains shown) VH: QMQLVQSGAEVKKPGSSVKVSCKASGGTFSSYAISWVRQAPGQGLEWMGGIIPIFGTANYAQKFQGRVTITADESTSTAYMELSSLRSEDTAVYYCARAREGLLVNYYGMDVWGQGTLVTVSS VL: DIQMTQSPSTLSASVGDRVTTTCRASQGISNYLAWFQQKPGKAPKSLIYAASSLQSGVPSRFSGGGSGTDFTLTINSLQPEDFATYYCLHDYNYPTFGQGTKVEIK |
| 5.82 ratio | 9.56 ratio | anti-MOG MO4B-43 antibody (scFv, V domains shown) VH: DEVQLLESGGGLVPGGSLRLSCEVSGFSFSNHAMHWVRQAPGKALEHLSVLGSDGRSTYYADSVKGRFTISRDISKTTVYLQMGSLRPGDMGVYYCARGLYGDHWDASDLWGQGTMVTVSS VL: EIVMTQSPATLSVSPAERVILSCRASQSVGNNVAWFQQKPGQAPRLLIHGASSRATGIPTRFSGSGSGTELTLTISSLQSEDFAVYYCQQYGSAPITFGQGTRLEIK |
| 2.44 ratio | 2.77 ratio | anti-MOG MO3I-57 antibody (scFv, V domains shown) VH: QVQLVQSGAEVKKPGASVKVSCKASGYTFSSYGISWVRQAPGQGLEWMGWISANTGNTDYAERLQGRVTMTTDTSTTTAYMELRSLRSDDTAVYYCARGAPNGYAVDYWGQGTLVTVSS VL: QSVLTQPPSASGAPGQRVSISCSGSSSNIGTNHVYWYQQFTGMAPKLIIDTNNQRPPGVPARFSGSKSGTSASLAISGLRSEDESDYYCLTWDDGLYDWVFGGGTKLTVL |
| 18.4 ratio | 5.59 ratio | anti-MOG MO3J-38 antibody (scFv, V domains shown) VH: QVQLVQSGPEVRKPGASVKVSCRASGYTFTSNDINWVRQAAGQGLEYLGWLHPKSGGTGYAQKFQGRVTMTRDTSISTAYLELSNLTSDDTAVYYCARVSFDEVIDFWGQGTLVTVSS VL: not shown |
| 14.6 ratio | 3.62 ratio | anti-MOG MO3J-26 antibody (scFv, V domains shown) VH: QVQLVQSGAEVKKPGSSVKVSCKASGGTFSTYTLSWVRQAPGKGLEWMGGFDPEDGETIYAQKFQGRVTMTEDTSTDTAYLELSSLRSDDTAVYYCAADEFWGPGTLVTVSS VL: QSVLTQPPSVSAAPGQTVTISCSGSSSNIGNNYVSWYQQLPGTAPKLLIYDNNKRPSGIPDRFSGSKSGTSATLGITGLQTGDEADYYCGTWDSSLSAVVFGGGTKLTVL |
| 6.11 ratio | 6.68 ratio | anti-MOG MO4B-42 antibody (scFv, V domains shown) VH: MAGSLQVDQVQLVQSGAEVKRPGESLKISCEGSGYSFTSSWIGWVRQMPGKGLECMGIIYPGDSDTRYSPSFQGHVTISADKSISTAYLQWSSLRASDTAMYYCARAYHSDYGFDFWGQGTLVTVSS VL: EIVLTQPLSVSESPGKTVTISCTRSSGSIANNFVQWYQRRPGSSPTTVIYENDQRPSGVPDRFSGSIDSSSNSASLTITGLETQDEADYYCQSFNDDVGGGNSGGGTK |
| 16.4 ratio | 8.99 ratio | anti-MOG MO3J-12 antibody (scFv, V domains shown) VH: EVQLLESGGGLVQPGGSLRLSCAASGFTFSTYWMHWVRQAPGRGLVWVSRINTDGSSTDYADSVKGRFTISRDNAKNTLYLQMNSLRAEDTAVYSCARGGQLVAAANDNWLDPWGQGTLVTVSS VL: AIQLTQSPSSLSASAGDRVTITCRASQSINNYLNWYQQKPGKAPKVLIYGASNLQSGVPSRFSGSGSGTDFTLTISSLQPEDFATYYCQQSYSTPRTFGQGTKVEIK |
| 12.9 ratio | 6.66 ratio | anti-MOG MO3J-37 antibody (scFv, V domains shown) VH: EVQLVESGGGLVQPGRSLRLSCAASGFTFDDYAMHWVRQAPGKGLEWVSGISWNSGSIGYADSVKGRFTISRDNAKNSLYLQMNSLRAEDTALYYCAKDMRAVAGTEGAFDIWGQGTMVTVSS VL: QSVVTQPPSMSAAPGQKVTISCSGSSSNIGNNYVSWYQQLPGTAPKLLIYENNKRPSGISDRFSGSKSGTSATLGITGLQTGDEADYYCATGDSGMTLVFGGGTKLTVL |
| 14.5 ratio | 6.61 ratio | anti-MOG MO3J-44 antibody (scFv, V domains shown) VH: QVQLVQSGAEVRKPGASVKISCQISGYNFISYTIQWVRQAPGQRPEWMGWINSGNGNTKYSQKFQGRVTFTRDTSTSTAYMELSSLRSEDTAVYYCARSGIGPWGQGTLVTVSS VL: EIVLTQPPDLQSVTPKKKVTITCRASQSIGNSLHWCQQKPDQSPKLLIKYASQSISGVPSRFSGSGSGTDFTLTINSLEAEDAATYYCHQSSSLPFTFGPGTKVDIK |
| 2.29 ratio | 2.29 ratio | anti-MOG MO3I-56 antibody (scFv, V domains shown) VH: QVQLVESGGGVVQPGSSLRLSCTASGFKFDDYAMHWVRQAPGKGLEWVSGISWNSGSIGYADSVKGRFTISRDNAKNSLYLQMNSLRAEDTASYYCAKSLPHYYDSPPYGMDVWGQGTLVTVSS VL: DIQLTQSPSSLSASVGDRVTITCRASQGISSALAWYQQKPGKAPKLLIYDASSLESGVPSRFSGSGSGTDFTLTISSLQPEDFATYYCQHRGTFGGGTKVDIK |
| 15.9 ratio | 7.46 ratio | anti-MOG MO3J-23 antibody (scFv, V domains shown) VH: DQVQLVQSGAEVKPGASVKVSCKASGYTFTSYGISWVRQAPGQGLEWMGWISAYNGNTNYAQKLQGRVTMTTDTSTSTAYMELRSLRSDDTAVYYCARDPVGSLRPYYMDVWGEGTTVTVSS VL: DIVMTQSPSTLSASVGDRVTITCRASQSISTWLAWYQQKPGKAPKLLIYAASSLQSGVPSRFSGSGSGTDFTLTISSLQPEDFATYYCQQSYSTPRTFGQGTKVEIK |
| 13.8 ratio | 22.1 ratio | anti-MOG MO3F-02 antibody (scFv, V domains shown) VH: QVQLQQSGPGLVKPSQTLSLTCAISGDSVSSNSAAWNWIRKSPSRGLEWLGRTYYRSKWYNDYAVSVKSRITINPDTSKNQFSLQLSSVTPEDTAVYYCARASAGTFGYWGQGTLVTVSS VL: DIVMTQSPSSLSASVGDRVTMTCRASQTINTYLNWYQQKPGKAPKLLIYAASTLQSGVPSRFSGSGSGTDFSLTISSLQPEDFATYYCQHGYNNPPFTFGPGTKVDIK |
| 2.09 ratio | 2.75 ratio | anti-MOG MO3I-60 antibody (scFv, V domains shown) VH: EVQLVESGGGLVKPGGSLGLSCAASGFTFTNAWGHWVRQAPGKGLEWVGRIKSKTDGGTTDYAAPVKDRFSISRDDSKNTLYLQMNSPTTEDTAVYYCATENGMDIVTTFDSWGQGTLVTVSS VL: AIRMTQSPSSLSASVGDRVTITCRASQSIGSYLSWYRQKPGKAPKLLIYDSSTLQSGVASRFSGSGSGTDFTLTISALQPEDFATYYCHQSYRTPLSFGGGTKVEIK |
